The target in data set [1] is T1, TRIM25 CC-PRY/SPRY (Homo sapiens, UniProt Q14258 189-630). The data set can be described thus: ITC. To be noted: mean of replicates 15;29;20;9; ITC: 20 mM MES pH 6.5, 75 mM NaCl, 0.5 mM TCEP, 20 C; protein NMR: 20 mM sodium phosphate pH 6.5, 150 mM NaCl, 2 mM TCEP, 293 K.
Data set [2] deals with T2, TRIM25 CC (Homo sapiens, UniProt Q14258 189-379). Put plainly: ITC. To be noted: mean of replicates 59;61;63; ITC: 20 mM MES pH 6.5, 75 mM NaCl, 0.5 mM TCEP, 20 C; protein NMR: 20 mM sodium phosphate pH 6.5, 150 mM NaCl, 2 mM TCEP, 293 K.
Data set [3] concerns the molecule itself. The data set can be described thus: SEC-MALS; 50 µl injected onto Superdex 200 5/150 GL in 20 mM MES, pH 6.5, 75 mM NaCl, 0.5 mM TCEP, 0.3 ml/min, room temperature.
Data set [4] addresses T3, TRIM25 PRY/SPRY (Homo sapiens, UniProt Q14258 439-630). Put plainly: ITC; ITC: 20 mM MES pH 6.5, 75 mM NaCl, 0.5 mM TCEP, 20 C; protein NMR: 20 mM sodium phosphate pH 6.5, 150 mM NaCl, 2 mM TCEP, 293 K. The following applies: protein: recombinant; tags: His-Trx, cleaved (3C); chain copies: 3; stem-loop (called 28-mer duplex RNA).
Data set [5] has as its target T1, TRIM25 CC-PRY/SPRY. The data set can be described thus: ITC; KD1 of two sites, mean of replicates 0.015;0.016;0.011; ITC: 20 mM MES pH 6.5, 75 mM NaCl, 0.5 mM TCEP, 20 C; protein NMR: 20 mM sodium phosphate pH 6.5, 150 mM NaCl, 2 mM TCEP, 293 K. The following applies: protein: recombinant; tags: His-Trx, cleaved (3C); chain copies: 2; hairpin with bulge. A general note: In ITC the heat of successive injections is recorded.
Target sequence in this assay (Q14258 189-630): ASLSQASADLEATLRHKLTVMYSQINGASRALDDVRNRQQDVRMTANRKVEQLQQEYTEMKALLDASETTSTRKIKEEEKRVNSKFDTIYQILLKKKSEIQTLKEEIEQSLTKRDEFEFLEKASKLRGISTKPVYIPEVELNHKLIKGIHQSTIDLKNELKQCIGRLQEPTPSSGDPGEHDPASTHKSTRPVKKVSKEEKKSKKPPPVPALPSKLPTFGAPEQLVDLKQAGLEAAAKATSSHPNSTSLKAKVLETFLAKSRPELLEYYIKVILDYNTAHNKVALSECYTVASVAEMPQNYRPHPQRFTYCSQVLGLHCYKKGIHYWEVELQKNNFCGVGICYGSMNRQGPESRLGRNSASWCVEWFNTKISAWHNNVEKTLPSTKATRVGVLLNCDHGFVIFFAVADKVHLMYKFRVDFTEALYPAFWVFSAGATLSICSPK

The target in data set [6] is T3, TRIM25 PRY/SPRY. The data set can be described thus: ITC; mean of replicates 0.3;0.7;0.3;0.2;0.6; DENV-SL in cell; ITC: 20 mM MES pH 6.5, 75 mM NaCl, 0.5 mM TCEP, 20 C; protein NMR: 20 mM sodium phosphate pH 6.5, 150 mM NaCl, 2 mM TCEP, 293 K. To be noted: protein: recombinant; tags: His-Trx, cleaved (3C); chain copies: 3; hairpin with bulge.
In data set [7] the target is T1, TRIM25 CC-PRY/SPRY. The data set can be described thus: ITC; ITC: 20 mM MES pH 6.5, 75 mM NaCl, 0.5 mM TCEP, 20 C; protein NMR: 20 mM sodium phosphate pH 6.5, 150 mM NaCl, 2 mM TCEP, 293 K. To be noted: protein: recombinant, tags: His-Trx, cleaved (3C), chain copies: 2.
Target sequence in this assay (Q14258 189-630): as above
In data set [8] the target is T2, TRIM25 CC. The data set is described as above. The following applies: protein: recombinant; tags: His-Trx, cleaved (3C); chain copies: 2; hairpin.
The target in data set [9] is T4, TRIM25 CC-PRY/SPRY-m9 (Homo sapiens, UniProt Q14258 189-630, K283A;K285A;K320E;Y323E;H331E;K332E;H505E;K508E;K602E). The data set can be described thus: ITC; 200 uM RNA, 20 uM protein; ITC: 20 mM MES pH 6.5, 75 mM NaCl, 0.5 mM TCEP, 20 C; protein NMR: 20 mM sodium phosphate pH 6.5, 150 mM NaCl, 2 mM TCEP, 293 K. The following applies: protein: recombinant; tags: His-Trx, cleaved (3C); chain copies: 2; hairpin.

For the next data set, the target named is TRIM25 CC-m4 (Homo sapiens, UniProt Q14258 189-379, K320E;Y323E;H331E;K332E). The data set can be described thus: ITC; 400 uM RNA, 50 uM protein; ITC: 20 mM MES pH 6.5, 75 mM NaCl, 0.5 mM TCEP, 20 C; protein NMR: 20 mM sodium phosphate pH 6.5, 150 mM NaCl, 2 mM TCEP, 293 K. The following applies: protein: recombinant; tags: His-Trx, cleaved (3C); chain copies: 2; hairpin.

The target of a further data set is TRIM25 PRY/SPRY-m3 (Homo sapiens, UniProt Q14258 439-630, H505E;K508E;K602E). The data set is described as above. The following applies: protein: recombinant; tags: His-Trx, cleaved (3C); chain copies: 3; hairpin.
Sequence of TRIM25 PRY/SPRY-m3 (Q14258 439-630 H505E/K508E/K602E): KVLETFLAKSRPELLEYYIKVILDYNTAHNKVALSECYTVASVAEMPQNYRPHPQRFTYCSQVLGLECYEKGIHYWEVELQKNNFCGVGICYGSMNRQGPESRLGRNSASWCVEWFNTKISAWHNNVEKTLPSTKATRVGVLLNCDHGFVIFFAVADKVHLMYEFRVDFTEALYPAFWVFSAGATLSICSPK
In a further data set the target is TRIM25 CC-m2 (Homo sapiens, UniProt Q14258 189-379, K283A;K285A). Put plainly: ITC; enthalpy reduced about 10-fold; ITC: 20 mM MES pH 6.5, 75 mM NaCl, 0.5 mM TCEP, 20 C; protein NMR: 20 mM sodium phosphate pH 6.5, 150 mM NaCl, 2 mM TCEP, 293 K. To be noted: protein: recombinant; tags: His-Trx, cleaved (3C); chain copies: 2; hairpin.
The target in data set [10] is T3, TRIM25 PRY/SPRY. Put plainly: ITC; Supplementary Table 1 first row (probably pre-let-7) reads 0.76-0.97 uM; ITC: 20 mM MES pH 6.5, 75 mM NaCl, 0.5 mM TCEP, 20 C; protein NMR: 20 mM sodium phosphate pH 6.5, 150 mM NaCl, 2 mM TCEP, 293 K. The following applies: protein: recombinant; tags: His-Trx, cleaved (3C); chain copies: 3; hairpin.
The target of data set [11] is T3, TRIM25 PRY/SPRY. Put plainly: NMR; CSPs in binding site 1 only; ITC: 20 mM MES pH 6.5, 75 mM NaCl, 0.5 mM TCEP, 20 C; protein NMR: 20 mM sodium phosphate pH 6.5, 150 mM NaCl, 2 mM TCEP, 293 K. The following applies: protein: recombinant; tags: His-Trx, cleaved (3C); single-stranded.
Data set [12] addresses T1, TRIM25 CC-PRY/SPRY. The data set can be described thus: ITC; KD1 of two sites; ITC: 20 mM MES pH 6.5, 75 mM NaCl, 0.5 mM TCEP, 20 C; protein NMR: 20 mM sodium phosphate pH 6.5, 150 mM NaCl, 2 mM TCEP, 293 K. The following applies: protein: recombinant; tags: His-Trx, cleaved (3C); chain copies: 2; hairpin.
Target sequence in this assay (Q14258 189-630): as the sequence (Q14258 189-630) above
The target of data set [13] is T4, TRIM25 CC-PRY/SPRY-m9. Put plainly: ITC; 300 uM RNA, 30 uM protein; ITC: 20 mM MES pH 6.5, 75 mM NaCl, 0.5 mM TCEP, 20 C; protein NMR: 20 mM sodium phosphate pH 6.5, 150 mM NaCl, 2 mM TCEP, 293 K. The following applies: protein: recombinant; tags: His-Trx, cleaved (3C); chain copies: 2; hairpin.
Data set [14] deals with T3, TRIM25 PRY/SPRY. Put plainly: NMR; CSPs in binding site 2 only; ITC: 20 mM MES pH 6.5, 75 mM NaCl, 0.5 mM TCEP, 20 C; protein NMR: 20 mM sodium phosphate pH 6.5, 150 mM NaCl, 2 mM TCEP, 293 K. To be noted: protein: recombinant; tags: His-Trx, cleaved (3C); chain copies: 3; hairpin.
Data set [15] deals with T1, TRIM25 CC-PRY/SPRY. The data set can be described thus: ITC; KD1 of two sites, mean of replicates 0.25;0.03;0.02; ITC: 20 mM MES pH 6.5, 75 mM NaCl, 0.5 mM TCEP, 20 C; protein NMR: 20 mM sodium phosphate pH 6.5, 150 mM NaCl, 2 mM TCEP, 293 K. To be noted: protein: recombinant; tags: His-Trx, cleaved (3C); chain copies: 2; hairpin.
Target sequence in this assay (Q14258 189-630): as above

The text below walks through data of PMC11445558, “The molecular dissection of TRIM25’s RNA-binding mechanism provides key insights into its antiviral activity” (Nature Communications, 2024).

T3 sequence (Q14258 439-630): as the sequence (Q14258 439-630 H505E/K508E/K602E) above, with E67H, E70K, E164K counted along it

On to Lnczc3h7a loop, for which the figures for the equilibrium dissociation constant (Kd) in the data set with TRIM25 CC-PRY/SPRY [1] and in the data set with TRIM25 CC [2] were 18000 nM and 61000 nM, respectively.

B1: TRIM25 CC (aa 189–379) (domain or fragment, human, UniProt Q14258 189-379, looked up)
chain: ASLSQASADLEATLRHKLTVMYSQINGASRALDDVRNRQQDVRMTANRKVEQLQQEYTEMKALLDASETTSTRKIKEEEKRVNSKFDTIYQILLKKKSEIQTLKEEIEQSLTKRDEFEFLEKASKLRGISTKPVYIPEVELNHKLIKGIHQSTIDLKNELKQCIGRLQEPTPSSGDPGEHDPASTHKSTRP
notes: also called CC domain; coiled-coil (CC) dimerisation domain
For the molecule B1, the binding result in [3] is on record as “binds”.

B2: TRIM25 CC-m4 (domain or fragment, human, UniProt Q14258 189-379, looked up)
chain: ASLSQASADLEATLRHKLTVMYSQINGASRALDDVRNRQQDVRMTANRKVEQLQQEYTEMKALLDASETTSTRKIKEEEKRVNSKFDTIYQILLKKKSEIQTLKEEIEQSLTKRDEFEFLEKASKLRGISTEPVEIPEVELNEELIKGIHQSTIDLKNELKQCIGRLQEPTPSSGDPGEHDPASTHKSTRP
Take B2: the binding result in [3] is on record as “binds”.

B3: TRIM25 CC-m2 (domain or fragment, human, UniProt Q14258 189-379, looked up)
chain: ASLSQASADLEATLRHKLTVMYSQINGASRALDDVRNRQQDVRMTANRKVEQLQQEYTEMKALLDASETTSTRKIKEEEKRVNSKFDTIYQILLAKASEIQTLKEEIEQSLTKRDEFEFLEKASKLRGISTKPVYIPEVELNHKLIKGIHQSTIDLKNELKQCIGRLQEPTPSSGDPGEHDPASTHKSTRP
Take B3: the binding result in data set [3] is on record as “binds”.

On to AUGGCUAGCUGGAGCCACCCGCAGUUCG (structured_RNA) [28-mer], for which the Kd (as a rule, the equilibrium constant for the complex coming apart) in the data set with TRIM25 PRY/SPRY [4] turned out to be 900 nM.

In the case of GCAGGUCGGAUUAAGCCAUAGUACGGGAAAAACUAUGCUACCUG (structured_RNA) [DENV-SL], the Kd came to 14 nM in the data set with TRIM25 CC-PRY/SPRY [5] and 420 nM in the data set with TRIM25 PRY/SPRY [6].

As for GUAUAGUUUAAAAGGAGAUAACUAUAC (structured_RNA) [pre-let-7a-1@2 (pre-let-7)], the dissociation constant Kd with TRIM25 CC-PRY/SPRY [7] (hairpin) came to 62 ± 44 nM; in the data set with TRIM25 CC [8], 3200 ± 700 nM; with TRIM25 CC-m2, 4000 ± 2000 nM; with TRIM25 PRY/SPRY [10], 4000 ± 1000 nM. In addition, the binding result in the data set with TRIM25 CC-PRY/SPRY-m9 [9], in the data set with TRIM25 CC-m4 and in the data set with TRIM25 PRY/SPRY-m3 was “no binding” in each case.

Take UAAAAGGAGAU (ssRNA) [pre-let-7 loop]: the binding result in the data set with TRIM25 PRY/SPRY [11] is “binds”.

In the case of GUAUAGUUUAAAGAAUGGAUAACUAUAC (structured_RNA) [pre-let-7_modified], the equilibrium dissociation constant (Kd) with TRIM25 CC-PRY/SPRY [12] stood at 180 nM. In addition, the binding result with TRIM25 CC-PRY/SPRY-m9 [13] is “no binding”.

For the molecule GUAUAGUUCAACUAUAC (structured_RNA) [pre-let-7 stem (stem-fusion)], the binding result with TRIM25 PRY/SPRY [14] was “binds”.

Regarding UUAGUGGCAGACAAAGGCAUCGAGGCAGCCGCAGAAGUUGUCUGCGAAGU (structured_RNA) [RNA_50_motif1&2], the Kd in the data set with TRIM25 CC-PRY/SPRY [7] (hairpin with bulge) was determined as 3.5 nM.

For the molecule UUUUAUCUGAGUUGGAGGUGAAG (structured_RNA) [Lnczc3h7a-SL], the equilibrium dissociation constant (Kd) with TRIM25 CC-PRY/SPRY [15] was 100 nM.
